Measurements as given in publication PMC4969796 (The Journal of General Physiology, 2016).

Target: the molecule itself
Assay: SDS-PAGE

B1: L24C/R117C KcsA (before chymotrypsin) (natural protein)
chain: MPPMLSGLLARLVKLLLGRHGSACHWRAAGAATVLLVIVLLAGSYLAVLAERGAPGAQLITYPRALWWSVETATTVGYGDLYPVTLWGRLVAVVVMVAGITSFGLVTAALATWFVGCEQERRGHFVRHSEKAAEEAYTRTTRALHERFDRLERMLDDNRR
Which “stoichiometry N” value does the source give for B1 here?
The value was 4.
